Biological target: T1, Tubulin cofactor D (TBCD), S. cerevisiae Cin1p (S. cerevisiae, UniProt P40987 1-1014)
T1 construct: Tubulin cofactor D ortholog Cin1p, S. cerevisiae, full-length cDNA; TBCD is insoluble when expressed alone; also called Yeast TBCD (cin1p); His-TBCD; source: E. coli, co-expressed with TBCE and Arl2 from polycistronic vectors; co-purified as TBC-DEG (Ni-NTA, HiTrap SP, Superdex 200); not shown: 6xHis, N-terminal, kept
T1 sequence (looked up): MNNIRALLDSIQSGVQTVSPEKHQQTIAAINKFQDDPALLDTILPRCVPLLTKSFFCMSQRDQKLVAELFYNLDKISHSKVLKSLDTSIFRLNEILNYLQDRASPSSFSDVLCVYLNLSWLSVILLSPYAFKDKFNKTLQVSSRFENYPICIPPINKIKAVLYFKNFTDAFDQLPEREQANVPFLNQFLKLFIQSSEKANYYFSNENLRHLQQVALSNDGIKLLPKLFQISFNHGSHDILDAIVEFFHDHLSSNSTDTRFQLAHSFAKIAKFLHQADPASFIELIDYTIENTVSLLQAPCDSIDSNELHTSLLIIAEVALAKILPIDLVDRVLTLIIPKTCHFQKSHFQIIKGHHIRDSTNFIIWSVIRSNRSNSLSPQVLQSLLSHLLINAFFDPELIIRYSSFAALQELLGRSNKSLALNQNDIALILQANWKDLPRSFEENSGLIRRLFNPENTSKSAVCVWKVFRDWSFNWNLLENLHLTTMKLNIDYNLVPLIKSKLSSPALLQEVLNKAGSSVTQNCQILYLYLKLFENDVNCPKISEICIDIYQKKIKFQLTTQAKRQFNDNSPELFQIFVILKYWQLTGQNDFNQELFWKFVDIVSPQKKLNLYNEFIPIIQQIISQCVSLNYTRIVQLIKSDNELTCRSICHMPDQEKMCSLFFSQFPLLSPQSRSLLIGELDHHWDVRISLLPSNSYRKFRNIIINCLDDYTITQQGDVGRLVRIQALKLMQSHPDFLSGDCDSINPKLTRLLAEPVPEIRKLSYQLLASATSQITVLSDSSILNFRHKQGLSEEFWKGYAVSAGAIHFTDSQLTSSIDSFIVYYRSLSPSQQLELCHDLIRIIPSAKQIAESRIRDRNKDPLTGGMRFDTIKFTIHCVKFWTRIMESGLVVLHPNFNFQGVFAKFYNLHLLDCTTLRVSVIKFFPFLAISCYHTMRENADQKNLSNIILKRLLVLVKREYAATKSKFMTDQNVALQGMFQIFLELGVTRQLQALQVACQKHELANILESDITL
Assay: SEC-MALS; WTC-03S5 column; purified TBC-DEG (subunits co-expressed and co-purified), αβ-tubulin, TBCC and their complexes; ternary complex with GDP·ALFx (wild type) or GTP (Q73L)
Conditions: both partners purified

stoichiometry N: 1
B1: Arl2 GTPase, S. cerevisiae Cin4p (enzyme, UniProt P39110 1-191, looked up)
chain: MGLLSIIRKQKLRDKEIRCLILGLDNSGKSTIVNKLLPKDEQNNDGIMPTVGFQIHSLMIKDVTISLWDIGGQRTLRPFWDNYFDKTQAMIWCIDVSLSMRFDETLQELKELINRDENRIGYECAVIVVLNKIDLVEDKSELHRRCLLVESELKCLFKPDIRIELVKCSGVTGEGIDNLRDRLVESCHFTQ
notes: ADP ribosylation factor-like 2 ortholog Cin4p, S. cerevisiae, full-length cDNA; Tags were not tolerated on either end of Arl2; Insoluble when expressed alone; also called Yeast Arl2 (cin4p); source: E. coli, co-expressed with TBCD and TBCE from polycistronic vectors; co-purified as TBC-DEG (Ni-NTA, HiTrap SP, Superdex 200)
